From patent US20060258570A1

Biological target: fibrinogen
Experiment: cell-based or functional assay

For decorin core protein, the Final Abs (405 nm) of thrombin-induced clot at [Decorin] 0.2 mM was 0.16 Abs 405 nm, the Final Abs (405 nm) of thrombin-induced clot at [Decorin] 0.4 mM was 0.145 Abs 405 nm and the Final Abs (405 nm) of thrombin-induced clot at [Decorin] 1.0 mM was 0.12 Abs 405 nm. It also gave a Final Abs (405 nm) of thrombin-induced clot at [Decorin] 2.0 mM of 0.113 Abs 405 nm, a Rate (mAbs/min) of thrombin-induced clotting at [Decorin] 0.2 mM of 61.8 mAbs/min and a Rate (mAbs/min) of thrombin-induced clotting at [Decorin] 0.4 mM of 55 mAbs/min. The Rate (mAbs/min) of thrombin-induced clotting at [Decorin] 1.0 mM was 38.8 mAbs/min and the Rate (mAbs/min) of thrombin-induced clotting at [Decorin] 2.0 mM was 34.5 mAbs/min.
